Source: US7442519B2, “KCNQ2-15 potassium channel” (priority 2002, dated 2008)

T1: PP2A/Bγ (Homo sapiens, UniProt Q9Y2T4, E66D/G293D/R253P)
T1 construct: The full-length coding region of the PPP2R2C gene, which encodes the PP2A/Bγ subunit; expressed in transfected cells; host or cells: Saccharomyces cerevisiae (AH109 / Y184 mating partners)
T1 sequence (Q9Y2T4 1-447 E66D/R253P/G293D): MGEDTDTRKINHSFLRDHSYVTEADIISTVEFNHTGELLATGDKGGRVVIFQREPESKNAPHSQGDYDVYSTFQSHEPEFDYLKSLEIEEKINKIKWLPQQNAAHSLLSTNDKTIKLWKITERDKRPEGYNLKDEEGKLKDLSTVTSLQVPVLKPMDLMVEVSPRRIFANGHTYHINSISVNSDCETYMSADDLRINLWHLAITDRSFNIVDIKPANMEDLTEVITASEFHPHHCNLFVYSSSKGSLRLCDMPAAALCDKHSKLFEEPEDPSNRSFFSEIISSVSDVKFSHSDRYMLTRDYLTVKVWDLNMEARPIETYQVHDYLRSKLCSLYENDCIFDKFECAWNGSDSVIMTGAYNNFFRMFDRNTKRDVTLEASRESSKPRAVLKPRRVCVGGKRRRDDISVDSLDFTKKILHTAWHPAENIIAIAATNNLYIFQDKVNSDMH

B1: KCNQ2-15bx: polypeptide of SEQ ID NO: 2, novel KCNQ2 splice variant (protein, listed as Homo sapiens)
chain: MVQKSRNGGVYPGPSGEKKLKVGFVGLDPGAPDSTRDGALLIAGSEAPKRGSILSKPRAGGAGAGKPPKRNAFYRKLQNFLYNVLERPRGWAFIYHAYVFLLVFSCLVLSVFSTIKEYEKSSEGALYILEIVTIVVFGVEYFVRIWAAGCCCRYRGWRGRLKFARKPFCVIDIMVLIASIAVLAAGSQGNVFATSALRSLRFLQILRMIRMDRRGGTWKLLGSVVYAHSKELVTAWYIGFLCLILASFLVYLAEKGENDHFDTYADALWWGLITLTTIGYGDKYPQTWNGRLLAATFTLIGVSFFALPAGILGSGFALKVQEQHRQKHFEKRRNPAAGLIQSAWRFYATNLSRTDLHSTWQYYERTVTVPMYSSQTQTYGASRLIPPLNQLELLRNLKSKSGLAFRKDPPPEPSPSKGSPCRGPLCGCCPGRSSQKVSLKDRVFSSPRGVAAKGKGSPQAQTVRRSPSADQSLEDSPSKVPKSWSFGDRSRARQAFRIKGAASRQNSEEASLPGEDIVDDKSCPCEFVTEDLTPGLKVSIRAVCVMRFLVSKRKFKESLRPYDVMDVIEQYSAGHLDMLSRIKSLQSRQEPRLPVQQGTRTGWASGTKPTVAHGGSAGGVWAGPPPHPRRPLSASVVSSQSLF
B2: GST-2E11: fusion protein between a KCNQ2-15b polypeptide comprising exons 13, 14 and 15b and GST (protein)
chain: SSQKVSLKDRVFSSPRGVAAKGKGSPQAQTVRRSPSADQSLEDSPSKVPKSWSFGDRSRARQAFRIKGAASRQNSEEASLPGEDIVDDKSCPCEFVTEDLTPGLKVSIRAVCVMRFLVSKRKFKESLRPYDVMDVIEQYSAGHLDMLSRIKSLQSRQEPRLPVQQGTRTGWASGTKPTVAHGGSAGGVWAGPPPHPRRPLSASVVSSQSLF
modifications: left off: a dimerising Fc or GST
notes: fusion protein between a KCNQ2-15b polypeptide comprising exons 13, 14 and 15b and GST
B3: KCNQ2-15by: polypeptide of SEQ ID NO: 4, novel KCNQ2 splice variant (protein, listed as Homo sapiens)
chain: MVQKSRNGGVYPGPSGEKKLKVGFVGLDPGAPDSTRDGALLIAGSEAPKRGSILSKPRAGGAGAGKPPKRNAFYRKLQNFLYNVLERPRGWAFIYHAYVFLLVFSCLVLSVFSTIKEYEKSSEGALYILEIVTIVVFGVEYFVRIWAAGCCCRYRGWRGRLKFARKPFCVIDIMVLIASIAVLAAGSQGNVFATSALRSLRFLQILRMIRMDRRGGTWKLLGSVVYAHSKELVTAWYIGFLCLILASFLVYLAEKGENDHFDTYADALWWGLITLTTIGYGDKYPQTWNGRLLAATFTLIGVSFFALPAGILGSGFALKVQEQHRQKHFEKRRNPAAGLIQSAWRFYATNLSRTDLHSTWQYYERTVTVPMYSSQTQTYGASRLIPPLNQLELLRNLKSKSGLAFRKDPPPEPSPSQKVSLKDRVFSSPRGVAAKGKGSPQAQTVRRSPSADQSLEDSPSKVPKSWSFGDRSRARQAFRIKGAASRQNSEEASLPGEDIVDDKSCPCEFVTEDLTPGLKVSIRAVCVMRFLVSKRKFKESLRPYDVMDVIEQYSAGHLDMLSRIKSLQSRQEPRLPVQQGTRTGWASGTKPTVAHGGSAGGVWAGPPPHPRRPLSASVVSSQSLF

How the values were obtained:
GSK-3β and PKA = experiment: In vitro phosphorylation assay of GST-2E11 with recombinant GSK-3β kinase and PKA; type: biochemical; conditions: LiCl added to the kination mix; signal negatively correlated with LiCl concentration
Experimental: Expression and purification of the GST-2E11 fusion protein were performed as described above. Beads with bound fusion protein corresponding to 1 ml of bacterial clear lysate were washed three times in NETN and one time with HMK buffer without DTT (20 mM Tris-HCl [pH 7.5], 120 mM NaCl, 12 mM MgCl2). Beads were resuspended in 240 μl of reaction mix (24 μl of 10×HMK Buffer with 20 mM DTT, 40 units of Protein Kinase A Catalytic Subunit [PKA from bovine heart, 250 units/vial, Sigma] in 40 mM DTT, 5 μl of 24 mM ATP and 207 μl of distilled water) and incubated for 30 min at room temperature. Beads were then washed three times in NETN buffer and one time in GSK-3β reaction buffer (20 mM Tris-HCl [pH 7.5], 10 mM MgCl2, 5 mM DTT) (New England Biolabs). Beads were then resuspended in 50 μl of reaction mix (5 μl of 10×GSK-3β reaction buffer, 1 μl of [^32P]γATP 10 mCi/ml, 50 U of recombinant GSK-3β[New England Biolabs], and distilled water for a final volume of 50 μl) and incubated at room temperature for 30 min. After three washes in NETN buffer, phosphorylated proteins were boiled in 2×Sample Buffer (125 mM Tris-HCl [pH 6.8], 4% SDS, 20% glycerol, 1.4 M β-Mercapto ethanol), resolved by 10% SDS-PAGE, and visualized by autoradiography.
In this phosphorylation assay, non-radiolabeled polypeptides to be tested are incubated in the presence of GSK-3β, PKA and radioactive ATP. […]

Xenopus laevis oocytes = experiment: Electrophysiological analysis (two-electrode voltage clamp) of homotetrameric potassium channels; type: cell-based; conditions: 0.4 ng of DNA injected
Experimental: The animal was anesthetized and pieces of the ovary were surgically removed and individual oocytes were dissected away in a saline solution (ND96) containing 96 mM NaCl, 2 mM KCl, 2 mM CaCl2, 2 mM MgCl2 and 5 mM HEPES at pH 7.4. Stage V and VI oocytes were treated at room temperanre for 2 h with collagenase type 1A (1 mg/ml) in the presence of 0.2 mg/ml trypsin inhibitor in saline solution to discard follicular cells. […] DNA corresponding to KCNQ2, 3H2 and 3H9 K+ channels were subcloned in PEKO vector in order to generate the respective cRNAS. cRNA concentrations were measured by absorbance at 260 nm. cRNA solutions were injected (about 50 nL/oocyte) using a pressure microinjector (Inject+matic, Geneve). Oocytes were then kept for 2-6 days in ND96 solution supplemented wirn 50 U/mL penicillin and 50 U/mL streptomycin.
In a 0.3 mL perfusion chamber, a single oocyte was impaled with two standard glass microelectrode (0.5-2 Mohm resistance) filled with 3M KCl and maintained under voltage clamp using a Dagan TEV200 amplifier system, USA. Electrical stimulations, data acquisition and analyses were performed using pClamp software (Axon Instruments, USA). […]

PP2A/Bγ = target: T1, PP2A/Bγ; experiment: Solid phase overlay assay with radiolabeled GST-PPP2R2C probe; type: binding; conditions: 100 ng, 10 ng and 0.1 ng loaded; band intensity proportional to loaded quantity
Experimental: Solid phase overlay assays were performed by adapting the method described by Kaelin and collaborators (Kaelin et al., 1992, Cell, 70:351-364). 100 ng, 10 ng and 0.1 ng of GST and GST-2E11 recombinant proteins were resolved by 9% SDS-PAGE and were transferred by electroblotting onto nitrocellulose membrane (nitrocellulose transfer membrane Protran BA 83, Schleicher and Schuell). The membrane were then blocked in HBB buffer (25 mM Hepes-KOH [pH 7.7], 25 mM NaCl, 5 mM MgCl2) with 5% (w/v) non-fat dry milk, 1 mM DTT, 0.05% Nonidet P-40 for 1 hr at room temperature. The binding reaction was carried out at room temperature in Hyb75 buffer (20 mM Hepes [pH 7.7], 75 mM KCl, 2.5 mM MgCl2, 0.1 mM EDTA, 0.05% Nonidet P-40) with 1% (w/v) non-fat dry milk, 1 mM DTT, 1 mM PMSF and 3.5 10^5dpm of a [^32P]-γATP GST-PPP2R2C radiolabeled recombinant protein used as a probe. After 4.5 hr of incubation, the membrane was washed with Hyb75 buffer, 1 mM DTT, 1% (w/v) non-fat dry milk three times for 15 min at room temperature. The blots were analyzed by autoradiography.
This experiment was performed to validate the interaction between KCNQ2-15b polypeptides and PP2A/Bγ. In this experiment, the PP2A/Bγ subunit was radiolabeled but not the proteins present on the nitrocellulose membrane. […] Furthermore, the intensity of the bands was proportional to the quantity of loaded GST-2E11. […]

Molecule	intensity of the M-current generated by the homotetrameric potassium channel (Xenopus laevis oocytes)	also measured
[Cl-].[Li+] [LiCl]		intensity of the phosphorylated GST-2E11 band (GSK-3β and PKA): decreased
B1	about 800 nA	
B2		interaction with PP2A/Bγ (band by autoradiography) (PP2A/Bγ): interacts
B3	about 700 nA	
